Holding throughout (experiment): flow cytometry on cells
Background: A flow cytometer gives signals particle by particle.

In experiment [1] the target is T1, full-length wild-type Ste2p (Saccharomyces cerevisiae, UniProt D6VTK4 1-431).
T1 sequence (looked up): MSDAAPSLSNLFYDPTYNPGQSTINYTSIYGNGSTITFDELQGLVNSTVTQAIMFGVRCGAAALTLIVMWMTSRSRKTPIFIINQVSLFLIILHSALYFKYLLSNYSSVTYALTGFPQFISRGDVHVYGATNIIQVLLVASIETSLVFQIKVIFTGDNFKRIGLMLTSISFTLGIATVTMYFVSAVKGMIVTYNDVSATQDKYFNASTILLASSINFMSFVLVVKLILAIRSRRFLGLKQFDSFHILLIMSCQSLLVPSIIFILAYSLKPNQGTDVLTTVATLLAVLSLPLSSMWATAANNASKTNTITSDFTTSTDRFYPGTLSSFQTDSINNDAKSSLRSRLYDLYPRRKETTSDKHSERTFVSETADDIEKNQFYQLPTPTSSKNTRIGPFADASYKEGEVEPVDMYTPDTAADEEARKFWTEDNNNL

The target of experiment [2] is T2, C-terminally truncated Ste2p H94Y (Saccharomyces cerevisiae, UniProt D6VTK4 1-303, H94Y).
T2 sequence (looked up): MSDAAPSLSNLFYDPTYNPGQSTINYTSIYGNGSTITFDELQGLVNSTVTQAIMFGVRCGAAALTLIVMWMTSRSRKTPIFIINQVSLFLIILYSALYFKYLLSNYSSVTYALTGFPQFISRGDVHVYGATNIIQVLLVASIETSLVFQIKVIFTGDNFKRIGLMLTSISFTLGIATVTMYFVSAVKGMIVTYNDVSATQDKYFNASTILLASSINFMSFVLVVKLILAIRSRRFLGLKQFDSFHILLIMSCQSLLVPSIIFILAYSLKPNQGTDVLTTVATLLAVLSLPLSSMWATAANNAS

In the next experiment the target is T3, full-length Ste2p V49D (Saccharomyces cerevisiae, UniProt D6VTK4 1-431, V49D).
T3 sequence (looked up): T1 sequence (looked up) with V49D

Experiment [3] addresses T4, C-terminally truncated Ste2p F38Y (Saccharomyces cerevisiae, UniProt D6VTK4 1-303, F38Y).
T4 sequence (looked up): T2 sequence (looked up) with F38Y, Y94H

For experiment [4], the target named is T5, C-terminally truncated Ste2p V49D (Saccharomyces cerevisiae, UniProt D6VTK4 1-303, V49D).
T5 sequence (looked up): T2 sequence (looked up) with V49D, Y94H

Experiment [5] deals with T6, C-terminally truncated Ste2p S95Y (Saccharomyces cerevisiae, UniProt D6VTK4 1-303, S95Y).
T6 sequence (looked up): T2 sequence (looked up) with Y94H, S95Y

Changes are numbered by the printed parent chain.

B1: [K^7(NBD),Nle^12] α-factor (peptide)
chain: WHWLQLKPGQPMY
modifications: NBD (7-nitrobenz-2-oxa-1,3-diazol-4-yl) conjugated to the lysine at position 7; norleucine at position 12 in place of methionine
Turning to B1, the Kd in experiment [1] stood at 28 ± 4.7 nM; in experiment [2], 90 ± 12 nM; in the experiment with full-length Ste2p V49D it was 49 ± 20 nM; in experiment [3] it was 64 ± 7.9 nM; in experiment [4], 35 ± 4 nM; in experiment [5], 8.1 ± 7.5 nM.

For orientation: Kd means the concentration at which binding is half-saturated. High values mean weaker binding, low ones tighter binding.

Source of the values: PMC4405178 (Biochemistry, 2015).
